This experiment concerns the target N-terminal hexahistidine-tagged CrlT (Pseudomonas aeruginosa WK172). Nature of the experiment: pull-down; NHis-CrlT and untagged CrlA co-produced from pET28b-His-crlTA in E. coli BL21; Ni-NTA resin, lysis buffer 50 mM potassium phosphate pH 8.0, 300 mM NaCl; Tricine-SDS-PAGE.

This is an account of results in PMC9127804.

For “untagged antitoxin CrlA (natural protein)”, the stoichiometry N (commonly a count of units in the complex or per binding partner) worked out at 1.
